Results published in PMC3203580.

How the values were obtained:
rhSmad1 MH1 [1] = molecular target: T1, rhSmad1 MH1 (Homo sapiens, UniProt Q15797 1-143); assay: competition
rhSmad1 MH1 [2] = molecular target: T1, rhSmad1 MH1; assay: competition; remark: listed apart in the source
rhSmad1 MH1 [3] = molecular target: T1, rhSmad1 MH1; assay: EMSA

T1 sequence (Q15797 1-143): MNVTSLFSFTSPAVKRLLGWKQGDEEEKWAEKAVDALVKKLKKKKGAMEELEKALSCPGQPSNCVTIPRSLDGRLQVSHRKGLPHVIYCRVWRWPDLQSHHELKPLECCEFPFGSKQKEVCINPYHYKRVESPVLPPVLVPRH

B1: GC-SBE mut (dsDNA)
DNA 1: ACAGCTCTAGATCCAGATGGCCTGG
DNA 2: CCAGGCCATCTGGATCTAGAGCTGT
rhSmad1 MH1 [1]
  binding result: no binding

B2: GC-SBE Cmut (GGCGCC) (dsDNA)
DNA 1: ACAGCTCTGGCGCCAGATGGCCTGG
DNA 2: CCAGGCCATCTGGCGCCAGAGCTGT
rhSmad1 MH1 [2]
  binding result: binds

B3: GC-SBE WT (dsDNA)
DNA 1: ACAGCTCTGGAGCCAGATGGCCTGG
DNA 2: CCAGGCCATCTGGCTCCAGAGCTGT
rhSmad1 MH1 [3]
  binding result: binds
